In publication PMC11257983 (2024):

B1: Flag-CNK^2–549 [Drosophila] / GST-HYP [Drosophila] (parent complex)
chain 1: AYINIAEWTPDQVTDWIKGLDESMKGYLYEFSKQEIGGRALLNIRPYELENLGMLRIGHQEIVLEAVENLRNFHYHLKNDNLQFMALHVATAAKNLHRELARNHAESTKIDTRILHDITRTIATLKPLVGSLERTPFRKQEMYREYCGNVLKCGLELATIAHRDRFALQPVPAIRQSAERLENLANFVIQDISDPMVLQPASLNLVTLKKRESELGFNIESSYNGIHRVTDIKYNSPAHNSGKIEDGDEIVQINYQTVVGWQHRTVLEHLREALPDVVLTVKKRPKHTKMFGQIYMQPYRLPSKKRNMAARWAAQMPSPRAAFLTLDTEQLATGGTGSAVPDPSKSLSSEKREVLTKANPVSSASDSDSSCSDIPTPTDPKLAAREIRLYYPKPRALLQRRNTICGCEYLSLKNSDLVVPSWHERKPGIGSPTNCDPGSPSIRDKSISFGYGLEMAARPTTCIGIAGDTSTDKARRMFHEARKLKQLTEDSQREFLVDRYKPGVSKVVRFDAKEDYVMKNEKFICNVENTILETFEPIPFADEGDEDA
chain 2: MGEETINSTQNKTRTKTTRPKAVYLWTVSDVLKWYRRHCGEYTQYEQLFAQHDITGRALLRITDSSLQRMGVTDNRDREAIWREIVKQRLKTDIMEIRDMERLNIY

Variants of: B1
Assay: GST pull-down, immunoblot quantification; S2 cells; only GST-HYP and Flag-CNK2–549 co-expressed; anti-Flag blot; parent: 1

Variant	ratio to parent
chain 1 AYINIAEWTPDQVTDWIKGLDESMKGYLYEFSKQEIGGRALLNIRPYELENLGMLRIGHQEIVLEAVENLRNFHYHLKNDNLQFMALHVATAAKNLHRELARNHAESTKIDTRILHDITRTIATLKPLVGSLERTPFRKQEMYREYCGNVDKCGLELATIAHRDRFALQPVPAIRQSAERLENLANFVIQDISDPMVLQPASLNLVTLKKRESELGFNIESSYNGIHRVTDIKYNSPAHNSGKIEDGDEIVQINYQTVVGWQHRTVLEHLREALPDVVLTVKKRPKHTKMFGQIYMQPYRLPSKKRNMAARWAAQMPSPRAAFLTLDTEQLATGGTGSAVPDPSKSLSSEKREVLTKANPVSSASDSDSSCSDIPTPTDPKLAAREIRLYYPKPRALLQRRNTICGCEYLSLKNSDLVVPSWHERKPGIGSPTNCDPGSPSIRDKSISFGYGLEMAARPTTCIGIAGDTSTDKARRMFHEARKLKQLTEDSQREFLVDRYKPGVSKVVRFDAKEDYVMKNEKFICNVENTILETFEPIPFADEGDEDA [chain 1 L151D]	0.76
chain 1 AYINIAEWTPDQVTDWIKGLDESMKGYLYEFSKQEIGGRALLNIRPYELENLGMLRIGHQEIVLEAVENLRNFHYHLKNDNLQFMALHVATAAKNLHRELARNHAESTKIDTRILHDITRTDATLKPLVGSLERTPFRKQEMYREYCGNVDKCGLELATIAHRDRFALQPVPAIRQSAERLENLANFVIQDISDPMVLQPASLNLVTLKKRESELGFNIESSYNGIHRVTDIKYNSPAHNSGKIEDGDEIVQINYQTVVGWQHRTVLEHLREALPDVVLTVKKRPKHTKMFGQIYMQPYRLPSKKRNMAARWAAQMPSPRAAFLTLDTEQLATGGTGSAVPDPSKSLSSEKREVLTKANPVSSASDSDSSCSDIPTPTDPKLAAREIRLYYPKPRALLQRRNTICGCEYLSLKNSDLVVPSWHERKPGIGSPTNCDPGSPSIRDKSISFGYGLEMAARPTTCIGIAGDTSTDKARRMFHEARKLKQLTEDSQREFLVDRYKPGVSKVVRFDAKEDYVMKNEKFICNVENTILETFEPIPFADEGDEDA [chain 1 I122D, chain 1 L151D]	0.12

Variants of: B1
Assay: GST pull-down, immunoblot quantification; S2 cells; GST-HYP, Flag-CNK2–549 + RRKM co-expressed; anti-Flag (CNK) blot; parent: 1

Variant	ratio to parent
chain 1 AYINIAEWTPDQVTDWIKGLDESMKGYLYEFSKQEIGGRALLNIRPYELENLGMLRIGHQEIVLEAVENLRNFHYHLKNDNLQFMALHVATAAKNLHRELARNHAESTKIDTRILHDITRTIATLKPLVGSLERTPFRKQEMYREYCGNVDKCGLELATIAHRDRFALQPVPAIRQSAERLENLANFVIQDISDPMVLQPASLNLVTLKKRESELGFNIESSYNGIHRVTDIKYNSPAHNSGKIEDGDEIVQINYQTVVGWQHRTVLEHLREALPDVVLTVKKRPKHTKMFGQIYMQPYRLPSKKRNMAARWAAQMPSPRAAFLTLDTEQLATGGTGSAVPDPSKSLSSEKREVLTKANPVSSASDSDSSCSDIPTPTDPKLAAREIRLYYPKPRALLQRRNTICGCEYLSLKNSDLVVPSWHERKPGIGSPTNCDPGSPSIRDKSISFGYGLEMAARPTTCIGIAGDTSTDKARRMFHEARKLKQLTEDSQREFLVDRYKPGVSKVVRFDAKEDYVMKNEKFICNVENTILETFEPIPFADEGDEDA [chain 1 L151D]	0.33
chain 1 AYINIAEWTPDQVTDWIKGLDESMKGYLYEFSKQEIGGRALLNIRPYELENLGMLRIGHQEIVLEAVENLRNFHYHLKNDNLQFMALHVATAAKNLHRELARNHAESTKIDTRILHDITRTDATLKPLVGSLERTPFRKQEMYREYCGNVDKCGLELATIAHRDRFALQPVPAIRQSAERLENLANFVIQDISDPMVLQPASLNLVTLKKRESELGFNIESSYNGIHRVTDIKYNSPAHNSGKIEDGDEIVQINYQTVVGWQHRTVLEHLREALPDVVLTVKKRPKHTKMFGQIYMQPYRLPSKKRNMAARWAAQMPSPRAAFLTLDTEQLATGGTGSAVPDPSKSLSSEKREVLTKANPVSSASDSDSSCSDIPTPTDPKLAAREIRLYYPKPRALLQRRNTICGCEYLSLKNSDLVVPSWHERKPGIGSPTNCDPGSPSIRDKSISFGYGLEMAARPTTCIGIAGDTSTDKARRMFHEARKLKQLTEDSQREFLVDRYKPGVSKVVRFDAKEDYVMKNEKFICNVENTILETFEPIPFADEGDEDA [chain 1 I122D, chain 1 L151D]	0.1

Variants of: B1
Assay: GST pull-down, immunoblot quantification; S2 cells; GST-HYP, V5-KSR, Myc-MEK co-expressed; anti-Flag (CNK) blot; parent: 1

Variant	ratio to parent
chain 1 AYINIAEWTPDQVTDWIKGLDESMKGYLYEFSKQEIGGRALLNIRPYELENLGMLRIGHQEIVLEAVENLRNFHYHLKNDNLQFMALHVATAAKNLHRELARNHAESTKIDTRILHDITRTIATLKPLVGSLERTPFRKQEMYREYCGNVLKCGLELATIAHRDRFALQPVPAIRQSAERLENLANFVIQDISDPMVLQPASLNLVTLKKRESELGFNIESSYNGIHRVTDIKYNSPAHNSGKIEDGDEIVQINYQTVVGWQHRTVREHLREALPDVVLTVKKRPKHTKMFGQIYMQPYRLPSKKRNMAARWAAQMPSPRAAFLTLDTEQLATGGTGSAVPDPSKSLSSEKREVLTKANPVSSASDSDSSCSDIPTPTDPKLAAREIRLYYPKPRALLQRRNTICGCEYLSLKNSDLVVPSWHERKPGIGSPTNCDPGSPSIRDKSISFGYGLEMAARPTTCIGIAGDTSTDKARRMFHEARKLKQLTEDSQREFLVDRYKPGVSKVVRFDAKEDYVMKNEKFICNVENTILETFEPIPFADEGDEDA [chain 1 L267R]	0.85
chain 1 AYINIAEWTPDQVTDWIKGLDESMKGYLYEFSKQEIGGRFLLNIRPYELENLGMLRIGHQEIVLEAVENLRNFHYHLKNDNLQFMALHVATAAKNLHRELARNHAESTKIDTRILHDITRTIATLKPLVGSLERTPFRKQEMYREYCGNVLKCGLELATIAHRDRFALQPVPAIRQSAERLENLANFVIQDISDPMVLQPASLNLVTLKKRESELGFNIESSYNGIHRVTDIKYNSPAHNSGKIEDGDEIVQINYQTVVGWQHRTVLEHLREALPDVVLTVKKRPKHTKMFGQIYMQPYRLPSKKRNMAARWAAQMPSPRAAFLTLDTEQLATGGTGSAVPDPSKSLSSEKREVLTKANPVSSASDSDSSCSDIPTPTDPKLAAREIRLYYPKPRALLQRRNTICGCEYLSLKNSDLVVPSWHERKPGIGSPTNCDPGSPSIRDKSISFGYGLEMAARPTTCIGIAGDTSTDKARRMFHEARKLKQLTEDSQREFLVDRYKPGVSKVVRFDAKEDYVMKNEKFICNVENTILETFEPIPFADEGDEDA [chain 1 A40F]	0.79
